“Also recorded” adds a separate entry of the source.
System: GFP-DLC1
Experiment: GST pull-down of GFP-DLC1 in A549 cells
Assay type: cell-based
Conditions: A549 cell extracts, anti-DLC1 immunoblot, listed as wild-type GST-R8
Excerpt: However, as talin R8 interacts with RIAM ([Goult et al., 2013b]) and paxillin (shown here) in addition to DLC1, we used several approaches to evaluate whether binding of talin R8 to endogenous RIAM or paxillin might have contributed to the observed results. For RIAM, the level of expression in the cell lines used here varied from very low to undetectable. To detect RIAM protein in any of the cell extracts, we had to use an anti-RIAM immunoprecipitation step followed by anti-RIAM immunoblotting. Using these conditions, endogenous RIAM was detected in A549 and H358 cells, but not in 293T cells (Figure S5A).
Figure S5, related to figure 6. […]
form a detectable complex with GST-talin R8.
(A) The expression of endogenous RIAM in cell lines. Cell extracts were subjected to immunoprecipitation followed by immunoblotting with anti-RIAM antibody.
(B) A complex between GST-talin R8 and endogenous RIAM is undetectable in A549 cells.
A549 cells were co-transfected with GFP-DLC1 and the GST constructs indicated. Cell extracts were subject to a glutathione bead pull down assay followed by immunoblotting with anti-GST and anti-RIAM antibodies on the same membrane (left). No complex between GST-talin R8 and RIAM could be detected. Under the same conditions, wild-type GST-R8 pulled-down the co-transfected GFP-DLC1; the immunoblot with anti-GST and anti-DLC1 on the same membrane is shown (right). […]

B1: GST-R8: GST-tagged talin R8, amino acids 1,453–1,580 (protein)
chain: NSQAGQQGLVEPTQFARANQAIQMACQSLGEPGCTQAQVLSAATIVAKHTSALCNSCRLASARTANPTAKRQFVQSAKEVANSTANLVKTIKALDGDFTEENRAQCRAATAPLLEAVDNLSAFASNPE
modifications: left off: GST, end not stated, kept
For B1, the “binding of GFP-DLC1” value was “pulled-down; also recorded: did bind GFP-DLC1”.

— paper PMC4938799, “LD Motif Recognition by Talin: Structure of the Talin-DLC1 Complex” (Structure(London, England:1993), 2016)
